In the RNAGym collection of RNA variant scans (doi:10.1021/acssynbio.7b00057):

B1: Pistol ribozyme (parent)
chain: GGGUCGUUGUUCCAUAAUCGCGUGGAUAUGGCACGCAAGUUUCUACCGGGCACCGUAAAUGUCCGACUGGAGCCGUUCGGGCGGCUAUAAACAGACCUCAGGCCCGAAGCGUGGCGGCACCUGCCGCCGGUGGUAAAAAAGAUCGGAAGAGCACACGUCU

Variants of: B1
Assay: aptazyme ON/OFF ratio, guanine; higher = stronger switching; co-transcriptional cleavage with and without guanine

Variant | aptazyme ON/OFF ratio
U7A U8G G9U U10G U11C | 1.03
U7A U8G G9U U10G U11A | 1.16
U7A U8G G9C U10G U11A C12G | 1.39
U7A U8G G9C U10G U11A C12U | 1.2
U7A U8G G9C U10G U11A C12A | 1.42
U7A U8G G9C U11C C12U | 1.49
U7A U8G G9C U11C C12A | 2.15
U7A U8G G9C U11C C12G | 1.65
U7A U8G G9C U10C U11C C13G | 1.02
U7A U8G G9C U10C U11C C13U | 1.04
U7A U8G G9C U10C U11C C13A | 0.995
U7A U8G G9U U10C C13A | 1.33
U7A U8G G9U U10C C13U | 1.57
U7A U8G G9U U10C C13G | 1.21
U7A U8G G9U U10G U11A C13U | 1.14
U7A U8G G9U U10G U11A C13A | 1.17
U7A U8G G9U U10G U11A C13G | 1.25
U7A U8G G9U U10G U11A C12U C13U | 1.42
U7A U8G G9U U10G U11A C12U C13G | 1.18
U7A U8G G9U U10G U11A C12U C13A | 1.64
U7A U8G G9U U10C U11A C12G C13G | 1.28
U7A U8G G9U U10C U11A C12G C13U | 1.37
U7A U8G G9U U10C U11A C12G C13A | 1.27
U7A U8G G9U U10A U11A C12G C13G | 1.28

Variant | aptazyme ON/OFF ratio
U7A U8G G9U U10A U11A C12G C13U | 1.22
U7A U8G G9U U10A U11A C12G C13A | 1.36
U7A U8G G9U U10A U11G C12G C13A | 1.05
U7A U8G G9U U10A U11G C12G C13G | 1.14
U7A U8G G9U U10A U11G C12G C13U | 1.52
U7A U8G G9C U10G U11A C12A C13A | 1.16
U7A U8G G9C U10G U11A C12A C13U | 1.47
U7A U8G G9C U10G U11A C12A C13G | 1.38
U7A U8G G9C U10G C12A C13G | 1.1
U7A U8G G9C U10G C12A C13U | 1.56
U7A U8G G9C U10G C12A C13A | 1.31
U7A U8G G9U U10C C12G C13U | 1.68
U7A U8G G9U U10C C12G C13A | 1.39
U7A U8G G9U U10C C12G C13G | 1.16
U7A U8G G9C U10G U11A C13G | 1.25
U7A U8G G9C U10G U11A C13U | 1.15
U7A U8G G9C U10G U11A C13A | 1.11
U7A U8G G9U U10G C12A | 1.21
U7A U8G G9U U10G C12U | 1.28
U7A U8G G9U U10G C12G | 1.15
U7A U8G G9C U10C U11A C13U | 1.22
U7A U8G G9C U10C U11A C13G | 1.22
U7A U8G G9C U10C U11A C13A | 1.16
U7A U8G G9C U10G U11A C12U C13G | 1.23

Variant | aptazyme ON/OFF ratio
U7A U8G G9C U10G U11A C12U C13U | 1.42
U7A U8G G9C U10G U11A C12U C13A | 1.33
U7A U8G G9C U10G U11C C12U C13A | 1.31
U7A U8G G9C U10G U11C C12U C13U | 1.21
U7A U8G G9C U10G U11C C12U C13G | 1.37
U7A U8G G9C U10G C12U C13A | 1.48
U7A U8G G9C U10G C12U C13G | 1.23
U7A U8G G9C U10G C12U C13U | 1.38
U7A U8G G9U U10A C12A | 1.45
U7A U8G G9U U10A C12U | 1.4
U7A U8G G9U U10A C12G | 1.45
U7A U8G G9U C12A C13G | 1.44
U7A U8G G9U C12A C13A | 1.28
U7A U8G G9U C12A C13U | 1.2
U7A U8G G9U U10C U11G C12A C13A | 1.16
U7A U8G G9U U10C U11G C12A C13U | 1.45
U7A U8G G9U U10C U11G C12A C13G | 1.41
U7A U8G G9C U11G C12U C13A | 1.44
U7A U8G G9C U11G C12U C13U | 1.4
U7A U8G G9C U11G C12U C13G | 1.41
U7A U8G G9U U10G C13U | 1.23
U7A U8G G9U U10G C13G | 1.32
U7A U8G G9U U10G C13A | 1.3
U7A U8G G9C U10G U11G C12U | 1.2

Variant | aptazyme ON/OFF ratio
U7A U8G G9C U10G U11G C12A | 1.36
U7A U8G G9C U10G U11G C12G | 1.19
U7A U8G G9C U10G U11C C12G C13G | 1.3
U7A U8G G9C U10G U11C C12G C13U | 1.4
U7A U8G G9C U10G U11C C12G C13A | 1.27
U7A U8G G9U C12G C13G | 1.4
U7A U8G G9U C12G C13A | 1.22
U7A U8G G9U C12G C13U | 1.33
U7A U8G G9C U11G C13G | 1.22
U7A U8G G9C U11G C13U | 1.4
U7A U8G G9C U11G C13A | 1.43
U7A U8G G9U U10A U11C C12A C13A | 1.25
U7A U8G G9U U10A U11C C12A C13G | 1.2
U7A U8G G9U U10A U11C C12A C13U | 1.37
U7A U8G G9U U10C U11G | 1.71
U7A U8G G9U U10C U11A | 3.38
U7A U8G G9U U10C U11C | 1.15
U7A U8G G9C U10C U11C C12U | 0.975
U7A U8G G9C U10C U11C C12G | 1.05
U7A U8G G9C U10C U11C C12A | 1.06
U7A U8G G9C U10G U11G C12G C13A | 1.32
U7A U8G G9C U10G U11G C12G C13U | 1.14
U7A U8G G9C U10G U11G C12G C13G | 1.24
U7A U8G G9U U10G U11A C12A | 1.74

Variant | aptazyme ON/OFF ratio
U7A U8G G9U U10G U11A C12G | 1.46
U7A U8G G9U U10G U11A C12U | 1.27
U7A U8G G9U U10C C12U C13G | 1.54
U7A U8G G9U U10C C12U C13A | 1.34
U7A U8G G9U U10C C12U C13U | 1.31
U7A U8G G9U U10C C12A C13U | 1.35
U7A U8G G9U U10C C12A C13A | 1.46
U7A U8G G9U U10C C12A C13G | 1.01
U7A U8G G9U U10A C12G C13G | 1.47
U7A U8G G9U U10A C12G C13U | 1.36
U7A U8G G9U U10A C12G C13A | 1.09
U7A U8G G9C U10G C13A | 1.52
U7A U8G G9C U10G C13G | 1.19
U7A U8G G9C U10G C13U | 1.17
U7A U8G G9U U10C U11C C12A C13U | 1.2
U7A U8G G9U U10C U11C C12A C13G | 1.32
U7A U8G G9U U10C U11C C12A C13A | 1.21
U7A U8G G9U U10A C13A | 1.36
U7A U8G G9U U10A C13U | 1.23
U7A U8G G9U U10A C13G | 1.12
U7A U8G G9U U10C U11G C12U C13U | 1.53
U7A U8G G9U U10C U11G C12U C13A | 1.21
U7A U8G G9U U10C U11G C12U C13G | 1.31
U7A U8G G9C U10C U11C C12A C13G | 1.06

Variant | aptazyme ON/OFF ratio
U7A U8G G9C U10C U11C C12A C13A | 1.01
U7A U8G G9C U10C U11C C12A C13U | 1.04
U7A U8G G9U U10A U11G C12A | 1.06
U7A U8G G9U U10A U11G C12G | 1.19
U7A U8G G9U U10A U11G C12U | 1.17
U7A U8G G9C U10G U11G C12U C13G | 1.18
U7A U8G G9C U10G U11G C12U C13U | 1.48
U7A U8G G9C U10G U11G C12U C13A | 1.2
U7A U8G G9U U10A U11G C13G | 1.12
U7A U8G G9U U10A U11G C13A | 1.14
U7A U8G G9U U10A U11G C13U | 1.37
U7A U8G G9C U10G U11C C12U | 1.07
U7A U8G G9C U10G U11C C12A | 1.47
U7A U8G G9C U10G U11C C12G | 1.3
U7A U8G G9U U10G C12U C13A | 1.49
U7A U8G G9U U10G C12U C13U | 1.21
U7A U8G G9U U10G C12U C13G | 1.24
U7A U8G G9C U10G C12G | 1.15
U7A U8G G9C U10G C12A | 1.27
U7A U8G G9C U10G C12U | 1.44
U7A U8G G9C U11G C12G C13U | 1.22
U7A U8G G9C U11G C12G C13G | 1.18
U7A U8G G9C U11G C12G C13A | 1.1
U7A U8G G9U U10A U11A C12U C13A | 1.26

Variant | aptazyme ON/OFF ratio
U7A U8G G9U U10A U11A C12U C13G | 1.24
U7A U8G G9U U10A U11A C12U C13U | 1.2
U7A U8G G9C U10C U11G C12A C13U | 1.06
U7A U8G G9C U10C U11G C12A C13A | 1.17
U7A U8G G9C U10C U11G C12A C13G | 1.15
U7A U8G G9C U10G U11G C12A C13A | 1.18
U7A U8G G9C U10G U11G C12A C13U | 1.22
U7A U8G G9C U10G U11G C12A C13G | 1.16
U7A U8G G9U U10A | 1.18
U7A U8G G9U U10G | 1.47
U7A U8G G9U U10C | 2.52
U7A U8G G9U U10C U11C C13A | 1.04
U7A U8G G9U U10C U11C C13G | 1.12
U7A U8G G9U U10C U11C C13U | 1.07
U7A U8G G9U U10A U11A C13U | 1.39
U7A U8G G9U U10A U11A C13A | 1.48
U7A U8G G9U U10A U11A C13G | 1.15
U7A U8G G9U U10A U11C C12U C13A | 1.21
U7A U8G G9U U10A U11C C12U C13G | 1.49
U7A U8G G9U U10A U11C C12U C13U | 1.2
U7A U8G G9U C12U | 1.62
U7A U8G G9U C12G | 1.64
U7A U8G G9U C12A | 1.53
